These are literature values, as cited in PMC3334866.

What is called pKd is the Kd on a negative log10 scale, so that one unit is a factor of ten.

pKd: −log10 of the molar value. A value given as a limit tells only on which side of the number the result lay.

The series has as its target Vinculin D1 (UniProt P18206).
UniProt P18206, sequence (P18206 1-258): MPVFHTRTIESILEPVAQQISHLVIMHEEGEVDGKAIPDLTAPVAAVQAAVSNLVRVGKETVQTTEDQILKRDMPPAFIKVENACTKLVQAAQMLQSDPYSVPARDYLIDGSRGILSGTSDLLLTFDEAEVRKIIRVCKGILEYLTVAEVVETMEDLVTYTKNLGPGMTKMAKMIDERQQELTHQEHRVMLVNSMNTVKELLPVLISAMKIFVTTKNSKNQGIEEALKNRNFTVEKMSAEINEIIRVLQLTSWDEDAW

On to IpaA peptide (from UniProt P18010), for which the pKd was over 9.00.
